We go through 22 molecules from patent US20240150440A1 (LUMEN BIOSCIENCE, published 2024).

Assay [1] concerns the target T1, SARS-CoV-2 spike protein on pseudotyped lentivirus (Wuhan Reference Pseudovirus) (SARS-CoV-2, UniProt P0DTC2 14-1273). In words: cell-based or functional assay.
Assay [2] concerns the target T2, SARS-CoV-2 Beta Variant RBD (SARS-CoV-2 Beta variant).
T2 construct: domain: RBD; coated on ELISA plates
The assay is described as follows: ELISA, RBD coated.

The target in assay [3] is T3, SARS-CoV-2 Gamma Variant RBD (SARS-CoV-2 Gamma variant).
T3 construct: domain: RBD; coated on ELISA plates
The assay is described as follows: ELISA, RBD coated. Background: In an ELISA, binding on a coated surface is turned into a signal by an enzyme label.

For assay [4], the target named is T4, SARS-CoV-2 Alpha Variant RBD (SARS-CoV-2 Alpha variant).
T4 construct: domain: RBD; coated on ELISA plates
In words: ELISA, RBD coated.

Assay [5] concerns the target T5, SARS-CoV-2 Delta Variant RBD (SARS-CoV-2 Delta variant).
T5 construct: domain: RBD; coated on ELISA plates
In words: ELISA, RBD coated.

Assay [6] concerns the target T1, SARS-CoV-2 spike protein on pseudotyped …. In words: cell-based or functional assay. This is another data set of the same source.

B1: PP1099 MBP-5HVZ-PAPA-RN-12-H6 (VHH)
VHH: QVQLVESGGGLVQPGGSLRLSCAASGSSFEGNAVHWFRQAPGKNREFVATITTSTSYYYADSVKGRFTISRDNAKNTVYLQMNSLKPEDTAVYYCAARLKDRGPQSEYDYWGQGTQVTVSS
notes: Form: Dimer
By EC50 is commonly meant the concentration needed to bring the measured effect to its halfway point. The low end stands for a more potent agent, the high end for a less potent agent. B1: the “infectivity % under 10 ug/mL VHH treatment” value (“infectivity %” below) in assay [1] was 70.6%. The concentration for a half-maximal effect (EC50) in assay [2] is 194 nM; in assay [3], 160 nM; in assay [4], 4.95 nM.

B2: PP1176 MBP-5HVZ-PAPA-R2a-F3-H6 (VHH)
VHH: QVQLVESGGGLVQPGGSLRLSCAASGSITSINWMHWFRQAPGKDREGVASISQTGRGSYADSVKGRFTISRDNAKNTVYLQMNSLKPEDTAVYYCAAASRTGTPYNYWGQGTQVTVSS
notes: Form: Dimer
B2: in assay [1], the “infectivity %” value is 58.4%. Further, the EC50 in assay [4] stood at 0.27 nM; in assay [5] it was 2.67 nM.

B3: PP1096 MBP-5HVZ-PAPA-RN-3-H6 (VHH)
VHH: QVQLVESGGGLVQPGGSLRLSCAASGFEFTYRAVHWFRQAPGKGREWVAGVVSGGSTYYADSVKGRFTISRDNAKNTVYLQMNSLKPEDTAVYYCNAGPQAEEDTYDYWGQGTQVTVSS
B3: the “infectivity %” value in assay [1] stood at 86.5%. Moreover, the EC50 is 63.2 nM in assay [2], 28.4 nM in assay [3] and 1.92 nM in assay [4].

B4: PP909 MBP-5HVZ-S2b-A7-H6 (VHH)
VHH: QVQLVESGGGLVQPGGSLRLSCAASGSSDSWNALHWFRQAPGKEREFVAGISSAGSGYYADSVKGRFTISRDNAKNTVYLQMNSLKPEDTAVYYCNGYEHTTGYDYWGQGTQVTVSS
notes: Form: Dimer
With B4, the half-maximal effective concentration (EC50) came out at 8.1 nM in assay [2], 5.37 nM in assay [3], 0.44 nM in assay [4] and 81.4 nM in assay [5].

B5: PP1114 MBP-5HVZ-PAPA-RN-30-H6 (VHH)
VHH: QVQLVESGGGLVQPGGSLRLSCAASGIPASYLNMHWFRQAPGKQREWVAGAGGTNSNYYQDSVKGRFTISRDNAKNTVYLQMNSLKPEDTAVYYCAALDGAESYDYVYPVWGQGTQVTVSS
notes: Form: Dimer
Regarding B5, the “infectivity %” value in assay [1] was 76.3%. Besides, the results for the concentration for a half-maximal effect (EC50) in assay [2], in assay [3] and in assay [4] were 18.9 nM, 6.12 nM and 1.64 nM, respectively.

B6: PP1111 MBP-5HVZ-PAPA-RN-27-H6 (VHH)
VHH: QVQLVESGGGLVQPGGSLRLSCAASGPQFSSNAVSWFRQAPGKEREWVAGITSGGSTDYADSVKGRFTISRDNAKNTVYLQMNSLKPEDTAVYYCTAPSVSDADRRTRDYWGQGTQVTVSS
notes: Form: Dimer
With B6, the “infectivity %” value in assay [1] is 68.3%. For the same molecule, the EC50 in assay [2] came to 1.57 nM; in assay [3] it was 1.6 nM; in assay [4], 0.31 nM; in assay [5], 231 nM.

B7: PP916 MBP-5HVZ-S3b-A8-H6 (VHH)
VHH: QVQLVESGGGLVQPGGSLRLSCAASGSIISRVKVHWFRQAPGKSREWVAGIDSGTASYYSDSVKGRFTISRDNAKNTVYLQMNSLKPEDTAVYYCAAENRGYGVDWGQGTQVTVSS
notes: Form: Dimer
Consider B7, for which the values for the EC50 in assay [2], in assay [3] and in assay [4] were 66.3 nM, 42.9 nM and 2.04 nM, respectively.

B8: PP907 MBP-5HVZ-S1b-E11-H6 (VHH)
VHH: QVQLVESGGGLVQPGGSLRLSCAASGSYASIASMHWFRQAPGKEREFVAGVTSGGSTNYGDSVKGRFTISRDNAKNTVYLQMNSLKPEDTAVYYCNALAGANYESQWEEYNYWGQGTQVTVSS
notes: Form: Dimer
For the molecule B8, the “infectivity %” value in assay [1] worked out at 76.3%. Moreover, the values for the concentration for a half-maximal effect (EC50) in assay [2], in assay [3] and in assay [4] were 263 nM, 120 nM and 3.7 nM, respectively.

B9: PP927 MBP-5HVZ-R1i-C8-H6 (VHH)
VHH: QVQLVESGGGLVQPGGSLRLSCAASGRQFGAWRMHWYRQAPGKQREWVAGITSGTSGNYADSVKGRFTISRDNAKNTVYLQMNSLKPEDTAVYYCAATSHTTYHAEYWGQGTQVTVSS
notes: Form: Dimer
As to B9, in assay [1], the “infectivity %” value was 45.4%. Also, the EC50 in assay [4] is 2.22 nM; in assay [5], 94.2 nM.

B10: PP912 MBP-5HVZ-S2b-G8-H6 (VHH)
VHH: QVQLVESGGGLVQPGGSLRLSCAASGSIQSYEAMHWFRQAPGKAREWVAVITWGDSTQYGDSVKGRFTISRDNAKNTVYLQMNSLKPEDTAVYYCAADVRQGYSSWGQGTQVTVSS
notes: Form: Dimer
With B10, the “infectivity %” value in assay [1] stood at 73.2%. In addition, the EC50 in assay [2] amounted to 365 nM; in assay [3], 177 nM; in assay [4], 1.96 nM; in assay [5] it was 622 nM.

B11: PP915 MBP-5HVZ-S3b-A7-H6 (VHH)
VHH: QVQLVESGGGLVQPGGSLRLSCAASGSIASINAIHWVRQAPGKQREEVAAITSGGSTGYADSVKGRFTISRDNAKNTVYLQMNSLKPEDTAVYYCAAQPGQSYAVWGQGTQVTVSS
notes: Form: Dimer
Consider B11, for which the “infectivity %” value in assay [1] was 90.5%. The EC50 in assay [4] amounted to 0.52 nM; in assay [5], 37.8 nM.

B12: PP1115 MBP-5HVZ-PAPA-RN-31-H6 (VHH)
VHH: QVQLVESGGGLVQPGGSLRLSCAASGSTGSDYAMHWFRQAPGKDREWVAGISSYGSDSYGDSVKGRFTISRDNAKNTVYLQMNSLKPEDTAVYYCAALQASAGAGYYYDYWGQGTQVTVSS
notes: Form: Dimer
On to B12, for which, in assay [1], the “infectivity %” value worked out at 86.9%. In addition, the EC50 in assay [2] is 857 nM; in assay [3], 162 nM; in assay [4], 6.74 nM.

B13: PP911 MBP-5HVZ-S2b-F7-H6 (VHH)
VHH: QVQLVESGGGLVQPGGSLRLSCAASGSTLSNNAMHWFRQAPGKAREFVAAIGSSDSTDYKDSVKGRFTISRDNAKNTVYLQMNSLKPEDTAVYYCTALLDSGPGEYNYWGQGTQVTVSS
notes: Form: Dimer
In the case of B13, the “infectivity %” value in assay [1] was found to be 74.9%. For the same molecule, the EC50 in assay [2] was determined as 545 nM; in assay [3], 317 nM; in assay [4] it was 2.19 nM.

B14: PP914 MBP-5HVZ-S3a-H1-H6 (VHH)
VHH: QVQLVESGGGLVQPGGSLRLSCAASGGIYSPYSMHWFRQAPGKAREWVAGIVGGGGTTYSDSVKGRFTISRDNAKNTVYLQMNSLKPEDTAVYYCNANYQEYDEYDYWGQGTQVTVSS
notes: Form: Dimer
As for B14, the concentration for a half-maximal effect (EC50) was determined as 19.4 nM in assay [2], 10.5 nM in assay [3] and 2.94 nM in assay [4].

B15: PP1112 MBP-5HVZ-PAPA-RN-28-H6 (VHH)
VHH: QVQLVESGGGLVQPGGSLRLSCAASGSQFSHNLMSWFRQAPGKQREFVAAITSFGSTGYADSVKGRFTISRDNAKNTVYLQMNSLKPEDTAVYYCAALSSEDTSHYPRNYWGQGTQVTVSS
notes: Form: Dimer
Take B15: the “infectivity %” value in assay [1] was found to be 70.4%. In addition, the EC50 amounted to 4.77 nM in assay [2], 3.01 nM in assay [3], 1.76 nM in assay [4] and 15.1 nM in assay [5].

B16: PP1110 MBP-5HVZ-PAPA-RN-26-H6 (VHH)
VHH: QVQLVESGGGLVQPGGSLRLSCAASGSISSINSMHWYRQAPGKEREWVAAVSSYGSDYYADSVKGRFTISRDNAKNTVYLQMNSLKPEDTAVYYCAARTVTGFTYGDYWGQGTQVTVSS
notes: Form: Dimer
With B16, the “infectivity %” value in assay [1] stood at 57.9%. In addition, the EC50 in assay [2] was 17 nM; in assay [3], 8.98 nM; in assay [4], 4.98 nM; in assay [5] it was 407 nM.

B17: PP1160 MPB-scTRP-PAPA-R5a-C5-H6 (VHH)
VHH: QVQLVESGGGLVQPGGSLRLSCAASGDIFSINALHWFRQAPGKQREEVAAITSGGSTGYADSVKGRFTISRDNAKNTVYLQMNSLKPEDTAVYYCAAQQARGGLDSDYWGQGTQVTVSS
notes: Form: Trimer
For B17, the “infectivity %” value in assay [1] was 4.22%. For the same molecule, the “Pseudovirus neutralization IC50” value in assay [6] was found to be 2.41 nM.

B18: PP1108 MBP-5HVZ-PAPA-RN-23-H6 (VHH)
VHH: QVQLVESGGGLVQPGGSLRLSCAASGGEKSISAAHWYRQAPGKEREFVAAITAASTTSYADSVKGRFTISRDNAKNTVYLQMNSLKPEDTAVYYCTAVLYDSYDYWGQGTQVTVSS
notes: Form: Dimer
Take B18: the “infectivity %” value in assay [1] is 93.1%. The results for the half-maximal effective concentration (EC50) in assay [2], in assay [3] and in assay [4] were 121 nM, 57.1 nM and 1.89 nM, respectively.

B19: PP1098 MBP-5HVZ-PAPA-RN-9-H6 (VHH)
VHH: QVQLVESGGGLVQPGGSLRLSCAASGLRFAMTEMAWFRQAPGKQREFVALITEGGSGSYGDSVKGRFTISRDNAKNTVYLQMNSLKPEDTAVYYCAALHYTEGANTESATTFDYWGQGTQVTVSS
For the molecule B19, in assay [1], the “infectivity %” value was found to be 58.3%. Besides, the concentration giving a half-maximal response (EC50) in assay [2] worked out at 24.8 nM; in assay [3], 11.2 nM; in assay [4], 0.97 nM.

B20: PP1109 MBP-5HVZ-PAPA-RN-25-H6 (VHH)
VHH: QVQLVESGGGLVQPGGSLRLSCAASGEDYSYNAAHWFRQAPGKEREWVAAINSGGGTYYADSVKGRFTISRDNAKNTVYLQMNSLKPEDTAVYYCAYLGALDRDGYDAWGQGTQVTVSS
notes: Form: Dimer
Consider B20, for which the “infectivity %” value in assay [1] was 88%. For the same molecule, the EC50 in assay [2] amounted to 17.1 nM; in assay [3], 11 nM; in assay [4] it was 1.12 nM; in assay [5], 115 nM.

B21: PP933 MBP-5HVZ-R5e-C1-H6 (VHH)
VHH: QVQLVESGGGLVQPGGSLRLSCAASGSIPYVQAMSWFRQAPGKGREGVASIGWGGGTYYADSVKGRFTISRDNAKNTVYLQMNSLKPEDTAVYYCAAKFRENFSFYDYWGQGTQVTVSS
notes: Form: Dimer
B21: the EC50 was determined as 10.2 nM in assay [2], 9.73 nM in assay [3], 9.74 nM in assay [4] and 8.87 nM in assay [5].

B22: PP906 MBP-5HVZ-S1b-E7-H6 (VHH)
VHH: QVQLVESGGGLVQPGGSLRLSCAASGGEFSDNGLHWFRQAPGKQREFVATASSDGSTQYRDSVKGRFTISRDNAKNTVYLQMNSLKPEDTAVYYCTALLMSSAGEYDVWGQGTQVTVSS
notes: Form: Dimer
In the case of B22, the “infectivity %” value in assay [1] turned out to be 69.6%. For the same molecule, the EC50 in assay [2] stood at 988 nM; in assay [3] it was 378 nM; in assay [4] it was 1.97 nM; in assay [5], 205 nM.
